How the values were obtained:
[1] = tested on: PPC peptide, soluble recombinant 18-mer ADGACGYGRFSPPCGAAG
[2] = target: recombinant soluble human uPAR (suPAR) (UniProt Q03405)
Sequence of recombinant soluble human uPAR (suPAR) (Q03405 whole entry, looked up, tested part not stated): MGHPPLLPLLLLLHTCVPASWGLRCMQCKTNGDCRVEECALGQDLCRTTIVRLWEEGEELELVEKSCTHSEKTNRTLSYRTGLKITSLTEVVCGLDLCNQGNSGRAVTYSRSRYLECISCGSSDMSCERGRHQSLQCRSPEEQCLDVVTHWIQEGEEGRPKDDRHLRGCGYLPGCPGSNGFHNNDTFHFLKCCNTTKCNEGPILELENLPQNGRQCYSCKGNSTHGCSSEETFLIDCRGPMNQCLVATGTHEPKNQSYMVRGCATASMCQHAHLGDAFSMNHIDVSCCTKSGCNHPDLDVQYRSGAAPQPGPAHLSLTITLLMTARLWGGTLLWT

Sequence of trypsin-activated MMP-9 (chain, as listed by the source): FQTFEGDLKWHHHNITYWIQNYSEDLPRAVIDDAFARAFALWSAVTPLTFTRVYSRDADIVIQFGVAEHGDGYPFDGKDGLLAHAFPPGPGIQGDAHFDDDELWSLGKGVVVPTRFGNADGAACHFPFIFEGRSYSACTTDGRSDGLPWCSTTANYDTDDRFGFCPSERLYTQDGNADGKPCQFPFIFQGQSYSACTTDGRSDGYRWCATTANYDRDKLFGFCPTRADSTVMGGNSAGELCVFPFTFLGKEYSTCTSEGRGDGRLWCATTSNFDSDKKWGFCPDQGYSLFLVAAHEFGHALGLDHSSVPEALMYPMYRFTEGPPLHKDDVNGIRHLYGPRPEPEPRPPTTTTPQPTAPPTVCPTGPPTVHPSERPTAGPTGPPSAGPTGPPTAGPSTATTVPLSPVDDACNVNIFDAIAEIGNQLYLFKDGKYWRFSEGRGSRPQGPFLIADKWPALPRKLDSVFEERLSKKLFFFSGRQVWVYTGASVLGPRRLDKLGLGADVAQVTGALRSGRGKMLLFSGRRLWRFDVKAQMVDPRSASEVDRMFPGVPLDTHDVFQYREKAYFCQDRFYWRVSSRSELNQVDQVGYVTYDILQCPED

## trypsin-activated MMP-9
[1]
  gelatin degradation assay (enzymatic activity, biotinylated gelatin substrate): PPC inhibited both MMP-9 and MMP-2 activity
[2]
  cleavage of soluble uPAR in vitro (western blot): MMP-9 cleaved the domain 1 (D1) from uPAR similarly as chymotrypsin does
